Test results: publication PMC9482650, “Quantitative fragmentomics allow affinity mapping of interactomes” (Nature Communications, 2022)

T1: MPP2, Q14168
T1 sequence (Q14168 180-250, limits assumed, looked up): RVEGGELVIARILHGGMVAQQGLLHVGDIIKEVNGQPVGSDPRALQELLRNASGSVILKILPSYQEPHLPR

T2: SHANK1, Q9Y566
T2 sequence (Q9Y566 658-767, limits assumed, looked up): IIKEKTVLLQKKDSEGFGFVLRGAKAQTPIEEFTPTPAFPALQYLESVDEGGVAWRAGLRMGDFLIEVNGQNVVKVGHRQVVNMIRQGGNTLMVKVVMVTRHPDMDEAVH

T3: PDZD7_3, Q9H5P4
T3 sequence (Q9H5P4 857-944, limits assumed, looked up): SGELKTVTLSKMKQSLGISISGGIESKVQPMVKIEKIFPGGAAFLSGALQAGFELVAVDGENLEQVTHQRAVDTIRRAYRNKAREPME

T4: CARD11, Q9BXL7
T4 sequence (Q9BXL7 662-765, limits assumed, looked up): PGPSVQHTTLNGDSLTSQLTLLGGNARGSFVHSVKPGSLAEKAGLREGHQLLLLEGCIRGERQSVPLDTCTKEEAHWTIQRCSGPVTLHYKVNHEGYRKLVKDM

T5: LNX2_2, Q8N448
T5 sequence (Q8N448 334-432, limits assumed, looked up): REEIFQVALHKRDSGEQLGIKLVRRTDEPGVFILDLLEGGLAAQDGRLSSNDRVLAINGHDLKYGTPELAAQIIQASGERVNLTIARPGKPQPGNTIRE

T6: SNTG2, Q9NY99
T6 sequence (Q9NY99 68-166, limits assumed, looked up): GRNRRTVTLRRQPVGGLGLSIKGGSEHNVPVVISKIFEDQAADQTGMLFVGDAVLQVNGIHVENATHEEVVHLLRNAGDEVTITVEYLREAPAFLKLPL

T7: DFNB31_2, Q9P202
T7 sequence (Q9P202 274-371, limits assumed, looked up): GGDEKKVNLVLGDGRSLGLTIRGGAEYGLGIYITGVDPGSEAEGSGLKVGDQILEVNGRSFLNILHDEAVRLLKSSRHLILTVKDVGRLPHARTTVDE

T8: SIPA1L2, Q9P2F8
T8 sequence (Q9P2F8 945-1036, limits assumed, looked up): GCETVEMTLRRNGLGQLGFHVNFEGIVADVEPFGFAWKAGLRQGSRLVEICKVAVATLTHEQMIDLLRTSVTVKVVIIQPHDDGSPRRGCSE

T9: DFNB31_1, Q9P202
T9 sequence (Q9P202 135-233, limits assumed, looked up): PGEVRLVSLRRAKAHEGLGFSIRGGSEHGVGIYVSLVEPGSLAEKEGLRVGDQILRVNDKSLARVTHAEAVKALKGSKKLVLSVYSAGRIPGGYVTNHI

T10: GRIP1_4, Q9Y3R0
T10 sequence (Q9Y3R0 467-571, limits assumed, looked up): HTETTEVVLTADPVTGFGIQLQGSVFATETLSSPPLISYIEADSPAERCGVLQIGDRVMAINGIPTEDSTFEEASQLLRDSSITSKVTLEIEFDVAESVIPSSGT

T11: PTPN13_1, Q12923
T11 sequence (Q12923 1088-1188, limits assumed, looked up): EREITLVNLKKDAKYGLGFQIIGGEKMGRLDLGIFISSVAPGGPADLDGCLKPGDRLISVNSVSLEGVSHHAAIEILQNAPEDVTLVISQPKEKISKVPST

T12: PARD3B_1, Q8TEW8
T12 sequence (Q8TEW8 196-299, limits assumed, looked up): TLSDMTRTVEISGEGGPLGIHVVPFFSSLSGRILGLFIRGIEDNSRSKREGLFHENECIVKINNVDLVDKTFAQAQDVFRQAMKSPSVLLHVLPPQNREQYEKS


Legend:
Assay in all cases: holdup assay
Set-up in all cases: key: below the threshold = too weak to quantify, mostly under pKd 3.1 to 4
Details in all cases: plain residues with an end cap or a label only (N-terminal biotin on a linker: ado-ado)
LNX1_1, Q8TBB1 = biological target: LNX1_1, Q8TBB1
Chain of LNX1_1, Q8TBB1 (Q8TBB1 261-371): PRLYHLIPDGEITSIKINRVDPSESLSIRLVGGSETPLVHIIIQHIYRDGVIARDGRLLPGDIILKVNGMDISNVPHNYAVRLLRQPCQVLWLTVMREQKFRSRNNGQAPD

MPP2, Q14168 = biological target: T1, MPP2, Q14168
LDB3, O75112 = biological target: LDB3, O75112
Chain of LDB3, O75112 (O75112 1-94): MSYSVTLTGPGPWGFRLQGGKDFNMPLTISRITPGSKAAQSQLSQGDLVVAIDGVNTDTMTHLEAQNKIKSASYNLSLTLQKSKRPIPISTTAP

SCRIB_3, Q14160 = biological target: SCRIB_3, Q14160
Chain of SCRIB_3, Q14160 (Q14160 999-1103): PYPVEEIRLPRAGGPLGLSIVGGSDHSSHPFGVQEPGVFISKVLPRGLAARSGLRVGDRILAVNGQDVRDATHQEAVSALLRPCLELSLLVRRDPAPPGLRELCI

GIPC2, Q8TF65 = biological target: GIPC2, Q8TF65
Chain of GIPC2, Q8TF65 (Q8TF65 112-203): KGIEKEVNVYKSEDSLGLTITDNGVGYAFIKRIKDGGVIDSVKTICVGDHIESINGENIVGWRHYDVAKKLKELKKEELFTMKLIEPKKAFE

SHANK1, Q9Y566 = biological target: T2, SHANK1, Q9Y566
PDZD7_3, Q9H5P4 = biological target: T3, PDZD7_3, Q9H5P4
MAGI1_1, Q96QZ7 = biological target: MAGI1_1, Q96QZ7
Chain of MAGI1_1, Q96QZ7 (Q96QZ7 1-106): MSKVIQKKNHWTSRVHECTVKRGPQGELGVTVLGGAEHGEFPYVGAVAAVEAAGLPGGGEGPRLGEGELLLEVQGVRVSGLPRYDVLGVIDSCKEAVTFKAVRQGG

CARD11, Q9BXL7 = biological target: T4, CARD11, Q9BXL7
LNX2_2, Q8N448 = biological target: T5, LNX2_2, Q8N448
NHERF2_2, Q15599 = biological target: NHERF2_2, Q15599
Chain of NHERF2_2, Q15599 (Q15599 142-238): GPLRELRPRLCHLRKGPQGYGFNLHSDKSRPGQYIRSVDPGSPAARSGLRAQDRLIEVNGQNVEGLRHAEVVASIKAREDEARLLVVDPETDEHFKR

SNTG2, Q9NY99 = biological target: T6, SNTG2, Q9NY99
GRASP, Q7Z6J2 = biological target: GRASP, Q7Z6J2
Chain of GRASP, Q7Z6J2 (Q7Z6J2 96-193): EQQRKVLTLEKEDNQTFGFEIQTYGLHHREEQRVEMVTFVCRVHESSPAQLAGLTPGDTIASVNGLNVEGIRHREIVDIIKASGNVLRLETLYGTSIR

DFNB31_2, Q9P202 = biological target: T7, DFNB31_2, Q9P202
SIPA1L2, Q9P2F8 = biological target: T8, SIPA1L2, Q9P2F8
DFNB31_1, Q9P202 = biological target: T9, DFNB31_1, Q9P202
MAGI2_6, Q86UL8 = biological target: MAGI2_6, Q86UL8
Chain of MAGI2_6, Q86UL8 (Q86UL8 1141-1229): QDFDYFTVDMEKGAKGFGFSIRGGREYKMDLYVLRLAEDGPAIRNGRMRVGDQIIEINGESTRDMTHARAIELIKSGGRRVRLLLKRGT

NHERF4_1, Q86UT5-2 = biological target: NHERF4_1, Q86UT5-2
Chain of NHERF4_1, Q86UT5-2 (Q86UT5 other isoform, or with tags, fused parts or gaps): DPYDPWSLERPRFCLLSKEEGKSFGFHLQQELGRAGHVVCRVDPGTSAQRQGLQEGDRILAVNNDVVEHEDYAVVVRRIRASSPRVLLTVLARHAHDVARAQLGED

Inadl_9, Q8NI35 = biological target: Inadl_9, Q8NI35
Chain of Inadl_9, Q8NI35 (Q8NI35 1530-1615): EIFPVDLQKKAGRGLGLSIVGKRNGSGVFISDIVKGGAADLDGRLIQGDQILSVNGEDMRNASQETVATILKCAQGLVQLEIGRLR

GRIP1_4, Q9Y3R0 = biological target: T10, GRIP1_4, Q9Y3R0
PTPN13_1, Q12923 = biological target: T11, PTPN13_1, Q12923
PARD3B_1, Q8TEW8 = biological target: T12, PARD3B_1, Q8TEW8
DLG4_1, P78352 = biological target: DLG4_1, P78352
Chain of DLG4_1, P78352 (P78352 62-152): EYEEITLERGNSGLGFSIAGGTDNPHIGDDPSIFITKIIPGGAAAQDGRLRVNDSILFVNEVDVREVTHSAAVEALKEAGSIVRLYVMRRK

GRID2IP_2, A4D2P6 = biological target: GRID2IP_2, A4D2P6
Chain of GRID2IP_2, A4D2P6 (A4D2P6 272-370): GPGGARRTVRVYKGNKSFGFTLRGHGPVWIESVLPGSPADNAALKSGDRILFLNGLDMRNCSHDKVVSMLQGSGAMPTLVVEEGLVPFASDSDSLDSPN

IL16_1, Q14005 = biological target: IL16_1, Q14005
Chain of IL16_1, Q14005 (Q14005 210-306): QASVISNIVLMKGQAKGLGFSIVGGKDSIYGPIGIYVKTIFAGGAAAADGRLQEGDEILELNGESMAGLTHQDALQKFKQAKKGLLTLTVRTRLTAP

| Binder | pKd (LNX1_1, Q8TBB1) | pKd (MPP2, Q14168) | pKd (LDB3, O75112) | pKd (SCRIB_3, Q14160) | pKd (GIPC2, Q8TF65) | pKd (SHANK1, Q9Y566) | pKd (PDZD7_3, Q9H5P4) | pKd (MAGI1_1, Q96QZ7) | pKd (CARD11, Q9BXL7) | pKd (LNX2_2, Q8N448) | pKd (NHERF2_2, Q15599) | pKd (SNTG2, Q9NY99) | pKd (GRASP, Q7Z6J2) | pKd (DFNB31_2, Q9P202) | pKd (SIPA1L2, Q9P2F8) | pKd (DFNB31_1, Q9P202) | pKd (MAGI2_6, Q86UL8) | pKd (NHERF4_1, Q86UT5-2) | pKd (Inadl_9, Q8NI35) | pKd (GRIP1_4, Q9Y3R0) | further results |
| --- | --- | --- | --- | --- | --- | --- | --- | --- | --- | --- | --- | --- | --- | --- | --- | --- | --- | --- | --- | --- | --- |
| PKSNSSKEYV [CLDN7, O95471] | below the threshold | below the threshold | below the threshold | below the threshold | below the threshold | below the threshold | below the threshold | below the threshold | below the threshold | below the threshold | below the threshold | below the threshold | below the threshold | below the threshold | below the threshold | below the threshold | below the threshold | below the threshold | 3.71 | below the threshold | pKd (PTPN13_1, Q12923): below the threshold; pKd (PARD3B_1, Q8TEW8): below the threshold; pKd (DLG4_1, P78352): below the threshold; pKd (GRID2IP_2, A4D2P6): below the threshold; pKd (IL16_1, Q14005): below the threshold |
| EFKQTSSFLV [JAM1, Q9Y624] | 3.6 | below the threshold | below the threshold | below the threshold | below the threshold | below the threshold | 4.03 | 3.49 | below the threshold | 5.22 | below the threshold | below the threshold | 3.56 | below the threshold | below the threshold | below the threshold | below the threshold | 3.84 | 3.86 | below the threshold | pKd (PTPN13_1, Q12923): below the threshold; pKd (PARD3B_1, Q8TEW8): 4.72; pKd (DLG4_1, P78352): below the threshold; pKd (GRID2IP_2, A4D2P6): below the threshold; pKd (IL16_1, Q14005): below the threshold |
| SQPLLVHDDV [KIT, P10721] | below the threshold | below the threshold | below the threshold | below the threshold | below the threshold | below the threshold | below the threshold | below the threshold | below the threshold | below the threshold | below the threshold | below the threshold | below the threshold | below the threshold | below the threshold | below the threshold | below the threshold | below the threshold | below the threshold | below the threshold | pKd (PTPN13_1, Q12923): below the threshold; pKd (PARD3B_1, Q8TEW8): below the threshold; pKd (DLG4_1, P78352): below the threshold; pKd (GRID2IP_2, A4D2P6): below the threshold; pKd (IL16_1, Q14005): below the threshold |
| KLQNPNQSVV [TYRP1, P17643] | 3.86 | below the threshold | below the threshold | below the threshold | 3.67 | below the threshold | 4.22 | below the threshold | below the threshold | 4.32 | below the threshold | 3.64 | 4 | below the threshold | below the threshold | 3.61 | below the threshold | below the threshold | below the threshold | below the threshold | pKd (PTPN13_1, Q12923): below the threshold; pKd (PARD3B_1, Q8TEW8): below the threshold; pKd (DLG4_1, P78352): 3.91; pKd (GRID2IP_2, A4D2P6): 3.63; pKd (IL16_1, Q14005): 3.94 |
